Data as given in publication PMC7858072.

Biological target: MBP-FhtR (faecalis heme transport regulator fused to the maltose binding protein) (Enterococcus faecalis OG1RF)
Experiment: SEC; 40 uM apo- or holo- (hemin-complexed) MBP-FhtR in 100 ul loaded on Superdex 200 Increase 10/300 GL; 20 mM HEPES (pH 7), 300 mM NaCl; read at OD280 and OD410

- stoichiometry N: 2
Substance: MBP-FhtR (faecalis heme transport regulator fused to the maltose binding protein) (natural protein)
